In patent US20150056222A1:

Biological target: mouse PRLR on HEK293 cells (mouse) (UniProt Q08501)
Test: FACS, HEK293/mPRLR cells

Chain of mouse PRLR on HEK293 cells (mouse) (Q08501 20-608): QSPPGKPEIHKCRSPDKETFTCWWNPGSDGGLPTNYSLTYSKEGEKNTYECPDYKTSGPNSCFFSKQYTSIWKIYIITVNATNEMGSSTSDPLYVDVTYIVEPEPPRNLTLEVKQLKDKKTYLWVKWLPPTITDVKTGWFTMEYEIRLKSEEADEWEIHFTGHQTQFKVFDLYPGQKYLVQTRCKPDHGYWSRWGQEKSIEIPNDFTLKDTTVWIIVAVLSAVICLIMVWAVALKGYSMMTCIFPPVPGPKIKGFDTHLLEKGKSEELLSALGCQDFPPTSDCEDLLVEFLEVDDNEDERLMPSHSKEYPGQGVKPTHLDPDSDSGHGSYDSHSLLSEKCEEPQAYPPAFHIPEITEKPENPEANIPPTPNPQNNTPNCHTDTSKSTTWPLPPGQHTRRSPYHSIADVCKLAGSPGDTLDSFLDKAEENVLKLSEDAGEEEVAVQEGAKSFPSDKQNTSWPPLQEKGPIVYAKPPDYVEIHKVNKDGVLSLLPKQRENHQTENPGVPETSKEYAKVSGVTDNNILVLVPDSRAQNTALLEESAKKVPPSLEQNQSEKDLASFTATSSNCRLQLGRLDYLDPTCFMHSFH

B1: H1H6801P (antibody, human IgG1, V domains shown)
VH: QVQLQQSGPGLVKPSQTLSLTCVISGDSVSSNTAWNWVRQSPSRGLEWLGRTYYRSKWYNDYAVSVKSRITINPDTSKNQFSLLMNSVTPEDTAVYYCARVVRGLNYFDYWGQGTLVTVSS
VL: DIVMTQSPDSLAVSLGERATINCKSSQSVLYNSNNKNYLAWYQQKPGQPPKLLIYWSSSRESGVPDRFSGSGSGTDFTLTISGLQAEDVAIYYCQQYSTIPYTFGQGTKLEIK
  FACS Cell Binding (Fold Above Background) (fold above background): 56
